Reference: patent US20220153839A1 (NBE THERAPEUTICS, published 2022)

Experiments:
[1] = molecular target: T1, hFc-mROR1 (extracellular domain of mouse ROR1 fused to the Fc domain of human IgG1) (human; mouse, UniProt Q9Z139 30-406); assay: ELISA; hFc fusion captured by coated anti-human IgG1 Fc; anti-His-HRP; A405
T1 construct: extracellular domain; not shown: Fc domain of human IgG1
Procedure: (§1) The binding of each chimeric rabbit/human Fab to hROR1 and mROR1 fused with human IgG1 Fc (hFc-hROR1 and hFc-mROR1) was analyzed by ELISA. hFc-ROR1 or hFc-mROR1 were captured by anti-human IgG1 Fc antibody immobilized on plate and then incubated with hROR1 specific Fabs comprising a His-tag via detection with mouse anti-His tag.
(§2) ELISA: For ELISA (FIG. 2), each well of a 96-well Costar 3690 plate (Corning, Corning, N.Y.) was coated with 100 ng anti-human IgG1 Fc in 25 μL coating buffer (0.1 M Na₂CO₃, 0.1 M NaHCO₃, pH 9.6) for 1 h at 37° C. After blocking with 150 μL 3% (w/v) BSA/TBS for 1 h at 37° C., hFc-hROR1 or hFc-mROR1 was captured following incubation at 100 ng/50 μL for 1 h at 37° C. Then 100 ng/50 μL of Fab was applied in each well at 37° C. 2 h later, 50 μL of a 1:1000 dilution of a mouse anti-His tag mAb conjugated to horse radish peroxidase (HRP) (R&D Systems, Minneapolis, Minn.) in 1% (w/v) BSA/TBS was used to detect the Fab. To determine the epitopes (FIG. 4), hFc fusion proteins containing different domains of hROR1 were coated directly, followed by incubation with Fab before detection by mouse anti-His tag mAb conjugated to HRP. Washing with PBS was repeated and colorimetric detection was performed using 2,2′-azino-bis(3-ethylbenzthiazoline)-6-sulfonic acid (Roche) as substrate according to the manufacturer's directions. The absorbance was measured at 405 nm using a SpectraMax M5 microplate reader (Molecular Devices; Sunnyvale, Calif.) and SoftMax Pro software (Molecular Devices).

hROR2 = molecular target: T2, hROR2 (human, UniProt Q01974); assay: flow cytometry on 63-12 / hROR2 cells; anti-His Alexa Fluor 488
T2 construct: full length, on the cell surface; also called 63-12 / hROR2; ROR2 on T47D cells
Procedure: Flow cytometry: Cells were stained using standard flow cytometry methodology. Briefly, for purified anti-ROR1 Fab (FIG. 3), 0.1-1×10⁶ cells were stained with 1000 ng/100 μL of Fab on ice for 1 h. After washing twice with ice-cold flow cytometry buffer (PBS containing 1% (v/v) BSA, 0.1% sodium azide and 1 mM EDTA), the cells were incubated with a 1:1000 dilution of a mouse anti-His tag mAb conjugated to Alexa Fluor 488 (Qiagen) in 100 μL flow cytometry buffer on ice for 30 min. For purified anti-ROR1 IgG1 (FIG. 8), 0.1-1×10⁶ cells were blocked by 4% goat serum for 15 min at room temperature and then incubated with 100 ng/100 μL of IgG on ice for 1 h. After washing twice with ice-cold flow cytometry buffer, cells were stained with a 1:500 dilution of goat anti-human IgG, Fcγ pAbs conjugated to APC (Jackson ImmunoResearch) in 100 μL flow cytometry buffer on ice for 30 min. For commercial goat anti human ROR1 polyclonal antibody (FIG. 8), 0.1-1×10⁶ cells were stained with 200 ng/100 μL of Ab on ice for 1 h. […] Finally, 4′,6-diamidino-2-phenylindole (DAPI) was added to a final concentration of 100 ng/mL to exclude dead cells from the analysis. Cells were analyzed using a FACSCalibur instrument (BD Biosciences) and FlowJo analytical software (Tree Star, Ashland, Oreg.).

[2] = molecular target: T3, hFc-hROR2 (extracellular domain of human ROR2 fused to the Fc domain of human IgG1) (human, UniProt Q01974 34-403); assay: ELISA as for hFc-hROR1; third bar series, keyed 'hFc-hROR1' a second time on the sheet, taken as hFc-hROR2 by legend paragraph 27
T3 construct: extracellular domain; not shown: Fc domain of human IgG1
Procedure: as §1, §2

[3] = molecular target: T4, hFc-hROR1 (extracellular domain of human ROR1 fused to the Fc domain of human IgG1) (human, UniProt Q01973 30-406); assay: SPR (Biacore X100); hFc-hROR1 captured by anti-human Fcγ antibody on CM5; Fab as analyte; 1:1 Langmuir fit
T4 construct: extracellular domain; also called hFc-ROR1; not shown: Fc domain of human IgG1
Procedure: (A) Shown are Biacore X100 sensorgrams obtained for the binding of each Fab to hFc-hROR1 captured by anti-human Fcγ antibody immobilized on CM5 chip after instantaneous background depletion. Fabs were injected at five different concentrations with the highest concentration indicated in table (B), one of the five concentrations was tested in duplicates. The equilibrium dissociation constant (Kd) was calculated from koff/kₒₙ (kₒₙ, association rate constant; koff, dissociation rate constant).
Surface plasmon resonance: Surface plasmon resonance for the measurement of the affinities of all Fabs to hFc-hROR1 and for epitope mapping studies were performed on a Biacore X100 instrument using Biacore reagents and software (GE Healthcare, Piscataway, N.J.). Anti-Human IgG (Fc) antibody was immobilized on a CM5 sensor chip following the instruction of Human Antibody Capture Kit (GE Healthcare, Piscataway, N.J.). The sensor chip included an empty flow cell for instantaneous background depletion. All binding assays used 1×HBS-EP+ running buffer (10 mM HEPES, 150 mM NaCl, 3 mM EDTA (pH 7.4), and 0.05% (v/v) Surfactant P20) and a flow rate of […]. […] The sensor chip was regenerated with […] from the Human Antibody Capture Kit without any loss of binding capacity. Calculation of association (kₒₙ) and dissociation (koff) rate constants was based on a 1:1 Langmuir binding model. The equilibrium dissociation constant (Kd) was calculated from koff/kₒₙ. For epitope mapping studies, each Fab was prepared at 500 nM alone in 1×HBS-EP+ running buffer and then injected in order as indicated in FIG. 5.

Ig = molecular target: T5, Ig (human, UniProt Q01973); assay: ELISA on directly coated hFc fusion proteins of hROR1 domains; anti-His-HRP; A405
T5 construct: Ig domain of the extracellular domain; also called hFc-hROR1-Ig
Procedure: as §2

Kr = molecular target: T6, Kr (human, UniProt Q01973); assay: as above
T6 construct: Kringle domain of the extracellular domain; also called hFc-hROR1-Kr
Procedure: as §2

Fr + Ki = molecular target: T7, Fr + Ki (human, UniProt Q01973); assay: as above
T7 construct: Frizzled and Kringle domains of the extracellular domain; also called hFc-hROR1-Fr-Ki
Procedure: as §2

Fr = molecular target: T8, Fr; assay: as above
T8 construct: also called hFc-hROR1-Fr
Procedure: as §2

T1 sequence (Q9Z139 30-406): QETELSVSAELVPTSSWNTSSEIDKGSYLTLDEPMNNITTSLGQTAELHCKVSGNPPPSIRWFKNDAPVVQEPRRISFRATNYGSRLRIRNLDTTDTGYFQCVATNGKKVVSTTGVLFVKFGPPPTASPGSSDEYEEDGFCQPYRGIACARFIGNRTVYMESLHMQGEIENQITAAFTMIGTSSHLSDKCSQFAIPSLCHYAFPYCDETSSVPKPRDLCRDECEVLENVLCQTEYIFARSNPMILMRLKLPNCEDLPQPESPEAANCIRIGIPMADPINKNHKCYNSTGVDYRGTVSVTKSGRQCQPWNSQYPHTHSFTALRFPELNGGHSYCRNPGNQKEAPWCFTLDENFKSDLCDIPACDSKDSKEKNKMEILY
T7 sequence (Q01973 165-391 limits assumed): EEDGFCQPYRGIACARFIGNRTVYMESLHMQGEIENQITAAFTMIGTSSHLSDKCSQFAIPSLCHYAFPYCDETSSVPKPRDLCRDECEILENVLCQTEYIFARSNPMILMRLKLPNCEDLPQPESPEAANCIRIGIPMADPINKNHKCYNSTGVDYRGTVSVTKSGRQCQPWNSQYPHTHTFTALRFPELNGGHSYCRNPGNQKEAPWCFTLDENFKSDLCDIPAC
T8 sequence (chain, as listed by the source limits assumed): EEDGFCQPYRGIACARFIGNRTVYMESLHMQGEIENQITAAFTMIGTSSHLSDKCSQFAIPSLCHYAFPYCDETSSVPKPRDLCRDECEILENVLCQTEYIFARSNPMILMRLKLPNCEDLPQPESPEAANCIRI
T4 sequence (Q01973 30-406): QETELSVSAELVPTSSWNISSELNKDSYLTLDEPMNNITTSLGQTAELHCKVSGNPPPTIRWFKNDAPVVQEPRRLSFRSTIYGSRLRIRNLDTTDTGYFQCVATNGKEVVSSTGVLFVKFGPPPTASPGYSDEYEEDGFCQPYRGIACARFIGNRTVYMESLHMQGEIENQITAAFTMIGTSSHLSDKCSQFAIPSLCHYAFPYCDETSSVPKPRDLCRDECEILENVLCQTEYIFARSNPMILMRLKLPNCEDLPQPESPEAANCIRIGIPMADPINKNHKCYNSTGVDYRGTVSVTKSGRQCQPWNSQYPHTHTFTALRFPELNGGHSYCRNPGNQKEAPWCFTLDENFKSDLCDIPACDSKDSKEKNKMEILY
T6 sequence (Q01973 312-391 limits assumed): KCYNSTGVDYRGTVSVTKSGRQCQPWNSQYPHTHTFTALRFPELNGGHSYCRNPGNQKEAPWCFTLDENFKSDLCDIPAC
T5 sequence (Q01973 42-147 limits assumed): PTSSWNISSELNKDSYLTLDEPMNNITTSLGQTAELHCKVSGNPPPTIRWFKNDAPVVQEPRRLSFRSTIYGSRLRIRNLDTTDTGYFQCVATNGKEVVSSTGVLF
T2 sequence (Q01974 34-943 limits assumed): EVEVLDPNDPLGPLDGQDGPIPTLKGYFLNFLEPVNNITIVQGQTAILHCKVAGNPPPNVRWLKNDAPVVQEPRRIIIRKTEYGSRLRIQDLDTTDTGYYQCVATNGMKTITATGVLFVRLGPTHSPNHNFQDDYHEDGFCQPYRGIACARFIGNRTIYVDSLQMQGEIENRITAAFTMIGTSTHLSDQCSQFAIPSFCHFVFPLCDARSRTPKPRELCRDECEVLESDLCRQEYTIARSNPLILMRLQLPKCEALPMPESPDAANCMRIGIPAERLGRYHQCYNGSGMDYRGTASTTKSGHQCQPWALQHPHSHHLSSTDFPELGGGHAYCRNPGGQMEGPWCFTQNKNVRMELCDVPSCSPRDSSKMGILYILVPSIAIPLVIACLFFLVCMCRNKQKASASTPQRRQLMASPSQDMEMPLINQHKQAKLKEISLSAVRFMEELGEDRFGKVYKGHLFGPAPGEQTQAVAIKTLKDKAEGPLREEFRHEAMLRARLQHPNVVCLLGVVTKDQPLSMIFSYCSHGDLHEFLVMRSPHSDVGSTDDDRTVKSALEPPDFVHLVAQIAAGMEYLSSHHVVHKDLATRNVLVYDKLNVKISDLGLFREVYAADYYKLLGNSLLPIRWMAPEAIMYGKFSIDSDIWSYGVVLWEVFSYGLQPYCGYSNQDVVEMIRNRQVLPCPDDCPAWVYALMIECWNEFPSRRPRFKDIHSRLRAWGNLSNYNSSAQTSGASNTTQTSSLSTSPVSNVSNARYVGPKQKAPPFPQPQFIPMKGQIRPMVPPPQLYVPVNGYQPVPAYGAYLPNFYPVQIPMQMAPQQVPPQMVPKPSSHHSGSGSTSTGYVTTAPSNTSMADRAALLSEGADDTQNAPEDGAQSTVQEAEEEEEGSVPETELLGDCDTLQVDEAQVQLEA
T3 sequence (Q01974 34-403): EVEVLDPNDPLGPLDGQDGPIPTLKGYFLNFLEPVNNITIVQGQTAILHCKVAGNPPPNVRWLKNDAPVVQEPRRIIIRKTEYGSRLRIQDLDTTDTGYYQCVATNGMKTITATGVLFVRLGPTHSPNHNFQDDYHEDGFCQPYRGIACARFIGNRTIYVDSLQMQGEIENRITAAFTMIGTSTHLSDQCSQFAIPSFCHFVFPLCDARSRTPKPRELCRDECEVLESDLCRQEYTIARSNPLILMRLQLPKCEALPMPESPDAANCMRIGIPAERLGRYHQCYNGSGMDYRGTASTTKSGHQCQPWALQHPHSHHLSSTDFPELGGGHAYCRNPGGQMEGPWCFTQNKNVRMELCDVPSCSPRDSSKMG

Row | binding result [1] | binding result (hROR2) | binding result [2] | Kd [3] [nM] | koff [3] [s⁻¹] | kon [3] [M⁻¹ s⁻¹] | binding result (Ig) | binding result (Kr) | binding result (Fr + Ki) | binding result (Fr) | Binder
1 | no binding (tested: 100 ng/50 µL) | no binding (tested: 1000 ng/100 µL) | no binding (tested: 100 ng/50 µL) | 5.81 | 0.00643 | 1.11e+06 | no binding | no binding | no binding |  | XBR1-402 chimeric rabbit/human Fab (Fab, V domains shown, Chimeric rabbit/human Fab with His tag, expressed in E. coli (pC3C-His); lambda light chain) VH: QEQQKESGGGLFKPTDTLTLTCTASGFDISSYYMSWVRQAPGNGLEWIGAIGISGNAYYASWAKSRSTITRNTNLNTVTLKMTSLTAADTATYFCARDHPTYGMDLWGPGTLVTVSS VL: SYELTQLPSVSVSLGQTARITCEGNNIGSKAVHWYQQKPGLAPGLLIYDDDERPSGVPDRFSGSNSGDTATLTISGAQAGDEADYYCQVWDSSAYVFGGGTQLTVTG
2 | no binding (tested: 100 ng/50 µL) | no binding (tested: 1000 ng/100 µL) | no binding (tested: 100 ng/50 µL) | 139 | 0.0654 | 469000 | no binding | no binding | no binding | no binding | ERR1-TOP15 chimeric rabbit/human Fab (Fab, V domains shown, Chimeric rabbit/human Fab with His tag, expressed in E. coli (pET11a); lambda light chain) VH: QEQLVESGGRLVTPGGSLTLTCAASGFSPSSYWMSWVRQAPGKGLEWIGAIYVDSGSAYYASWAKSRFTISKTSSTTVDLKMTSLTTEDTAIYFCARDGWGSDVWGPGTLVTISS VL: SYELTQLPSVSVSLGQTARITCGGNSIGSKAVHWYQQKPGLAPGLLIYDDDERPSGVPDRFSGSNSGDTATLTISGAQAGDEADYYCQLWDSSAGAYVFGGGTQLTVTG
3 | no binding (tested: 100 ng/50 µL) | no binding (tested: 1000 ng/100 µL) | no binding (tested: 100 ng/50 µL) | 121 | 0.133 | 1.1e+06 | no binding | no binding | no binding | no binding | ERR1-316 chimeric rabbit/human Fab (Fab, V domains shown, Chimeric rabbit/human Fab with His tag, expressed in E. coli (pET11a); lambda light chain) VH: QEQLEESGGRLVTPGTPLTLTCTASGFFLSSYYVSWVRQAPGKGLEWIGAIGTGGSAYYASWAKSRSTITRNTNLSTVTLKMTSLTAADTATYFCARDHPNYGMDLWGPGTLVTVSS VL: SYELTQLPSVSVSLGQTARITCGGNSIGSKAVNWYQQKPGLAPGLLIYDDDERPSGVPDRFSGSNSGDTATLTISGAQAGDEADYYCQLWDSSTGAYAFGGGTQLTVTG
4 | no binding (tested: 100 ng/50 µL) | no binding (tested: 1000 ng/100 µL) | no binding (tested: 100 ng/50 µL) | 1.11 | 0.000501 | 451000 | no binding | no binding | no binding | no binding | ERR1-TOP43 chimeric rabbit/human Fab (Fab, V domains shown, Chimeric rabbit/human Fab with His tag, expressed in E. coli (pET11a); lambda light chain) VH: QSLEESGGRLVTPGTPLTLTCTVSGFSLSSYWMSWVRQAPGKGLEWIGAIYGSGNTYYASWAKGRFTISKTSTTVDLKITSPTTEDTATYFCARDVHSTATDLWGPGTLVTISS VL: SYELTQLPSVSVSLGQTARITCGGNNIGSKAVNWYQQKPGLAPGLLIYNDDERPSGVPDRFSGSNSGDTATLTISGAQAGDEADYYCQLWDSSAGAYVFGGGTQLTVTG
5 | no binding (tested: 100 ng/50 µL) | no binding (tested: 1000 ng/100 µL) | no binding (tested: 100 ng/50 µL) | 118 | 0.1 | 849000 | no binding | no binding | no binding | no binding | ERR1-301 chimeric rabbit/human Fab (Fab, V domains shown, Chimeric rabbit/human Fab with His tag, expressed in E. coli (pET11a); lambda light chain) VH: QEQLEESGGGLVTPGGSLTLTCTASGFTISTYHMSWVRQAPGKGLEWIGSIYAGSGSTYYASWVNGRFTISSNTTQNTVSLQMNSLTVADTATYFCARDHPSYGMDLWGPGTLVTVSS VL: SYELTQLPSVSVSLGQTARITCGGNSIGSKAVNWYQQKPGLAPGLLIYDDDERPSGVPDRFSASNSGDTATLTISGAQAEDEADYYCQLWDSSAVAYVFGGGTQLTVTG
6 | no binding (tested: 100 ng/50 µL) | no binding (tested: 1000 ng/100 µL) | no binding (tested: 100 ng/50 µL) | 145 | 0.0688 | 475000 |  | no binding | no binding | no binding | ERR1-TOP54 chimeric rabbit/human Fab (Fab, V domains shown, Chimeric rabbit/human Fab with His tag, expressed in E. coli (pET11a); lambda light chain) VH: QSLEESGGRLVTPGTPLTLTCTASGFSLSDYYMSWVRQAPGEGLEWIGTIYGGSGNTWYATWAKGRFTISKTSTTVDLKITSPTTEDTATYFCARDFGLSTGGLWGPGTLVTISS VL: SYELTQLPSVSVSLGQTARITCGGNSIGSKAVNWYQQKPGLAPGLLIYDDDERPSGVPDRFSGSNSGDTATLTISGAQAGDEADYYCQLWDSSARAFVFGGGTQLTVTG
